Assay results published in the supplement of paper PMC5998384.

Experiments:
HeLa Kyoto [1] = test: solubility in G1/S (NP-40 vs SDS abundance) (log2 ratio); higher = more soluble; conditions: cell cycle stage: G1/S
HeLa Kyoto [2] = test: melting temperature (median over replicates), in situ; higher = more thermally stable
HeLa Kyoto [3] = test: solubility change mitosis vs G1/S (difference of NP-40 vs SDS log2 ratios) (log2 ratio difference); higher = more soluble in mitosis
HeLa Kyoto [4] = test: thermal stability score vs G1/S (z-score of summed log2 fold changes over temperatures); higher = more thermally stable than in G1/S
[5] = cell cycle stage: early G1 (4.5 h after nocodazole release)
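For melting temperature (median over replicates), in situ in this document: HeLa Kyoto cells synchronized by double thymidine or nocodazole block, proteins quantified by TMT10plex mass spectrometry, three independent biological replicates.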
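For solubility change mitosis vs G1/S (difference of NP-40 vs SDS log2 ratios) in this document: synchronized HeLa Kyoto cells (double thymidine block for G1/S, nocodazole release for mitosis), protein amounts in NP-40 versus SDS lysates quantified by mass spectrometry, three biological replicates.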
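For solubility in G1/S (NP-40 vs SDS abundance) in this document: HeLa Kyoto cells arrested at G1/S by double thymidine block, proteins quantified by TMT10plex mass spectrometry in mild NP-40 versus SDS extracts, three biological replicates.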
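For thermal stability score vs G1/S (z-score of summed log2 fold changes over temperatures) in this document: synchronized HeLa Kyoto cells, proteins quantified by TMT10plex mass spectrometry, three biological replicates, mitosis taken 0.5 h after nocodazole release, G1/S directly after double thymidine block.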

Row | Sequence | solubility in G1/S (log2) (HeLa Kyoto [1]) | melting temperature (HeLa Kyoto [2]; cell cycle stage: G1/S) | melting temperature (HeLa Kyoto [2]; cell cycle stage: mitosis) | solubility change mitosis (log2) (HeLa Kyoto [3]) | thermal stability score (HeLa Kyoto [4]; [5]) | thermal stability score (HeLa Kyoto [4]; cell cycle stage: mitosis)
1 | MEAAAVTVTRSATRRRRRQLQGLAAPEAGTQEEQEDQEPRPRRRRPGRSIKDEEEETVFREVVSFSPDPLPVRYYDKDTTKPISFYLSSLEELLAWKPRLEDGFNVALEPLACRQPPLSSQRPRTLLCHDMMGGYLDDRFIQGSVVQTPYAFYHWQCIDVFVYFSHHTVTIPPVGWTNTAHRHGVCVLGTFITEWNEGGRLCEAFLAGDERSYQAVADRLVQITQFFRFDGWLINIENSLSLAAVGNMPPFLRYLTTQLHRQVPGGLVLWYDSVVQSGQLKWQDELNQHNRVFFDSCDGFFTNYNWREEHLERMLGQAGERRADVYVGVDVFARGNVVGGRFDTDKSLELIRKHGFSVALFAPGWVYECLEKKDFFQNQDKFWGRLERYLPTHSICSLPFVTSFCLGMGARRVCYGQEEAVGPWYHLSAQEIQPLFGEHRLGGDGRGWVRTHCCLEDAWHGGSSLLVRGVIPPEVGNVAVRLFSLQAPVPPKIYLSMVYKLEGPTDVTVALELTTGDAGSCHIGGISVLNAETSSRHSLRPLRVPPTKLARWVGRCGRQLSGGWVQHCYEVSLRGCLLLDLLVCFSRPPGSREEESFTCRLGEIQVVDAASLLAPLPQVQAVTISHIRWQPSASEREGPPALLQLSCTLHWSFLLSQVRCFRIHCWGGMSDDSPGRELPRPEMPMFLGLAFATQYRIVDLLVEAAGPGQDRRMEFLVEPVPKEGFRVPQAEWGRAVLLYSAPA [ENGASE] | -0.179 | 53.6 °C | 53.4 °C | -0.0912 | 0.438 | -0.925
2 | MSSLIRRVISTAKAPGAIGPYSQAVLVDRTIYISGQIGMDPSSGQLVSGGVAEEAKQALKNMGEILKAAGCDFTNVVKTTVLLADINDFNTVNEIYKQYFKSNFPARAAYQVAALPKGSRIEIEAVAIQGPLTTASL [HRSP12] | 0.213 | 55.4 °C | 55 °C | 0.158 | -1.03 | -1.85
3 | MALPIIVKWGGQEYSVTTLSEDDTVLDLKQFLKTLTGVLPERQKLLGLKVKGKPAENDVKLGALKLKPNTKIMMMGTREESLEDVLGPPPDNDDVVNDFDIEDEVVEVENREENLLKISRRVKEYKVEILNPPREGKKLLVLDVDYTLFDHRSCAETGVELMRPYLHEFLTSAYEDYDIVIWSATNMKWIEAKMKELGVSTNANYKITFMLDSAAMITVHTPRRGLIDVKPLGVIWGKFSEFYSKKNTIMFDDIGRNFLMNPQNGLKIRPFMKAHLNRDKDKELLKLTQYLKEIAKLDDFLDLNHKYWERYLSKKQGQ [UBLCP1] | 0.159 | 49.5 °C | 50 °C | -0.142 | 0.941 | 2.39
4 | MEDFARGAASPGPSRPGLVPVSIIGAEDEDFENELETNSEEQNSQFQSLEQVKRRPAHLMALLQHVALQFEPGPLLCCLHADMLGSLGPKEAKKAFLDFYHSFLEKTAVLRVPVPPNVAFELDRTRADLISEDVQRRFVQEVVQSQQVAVGRQLEDFRSKRLMGMTPWEQELAQLEAWVGRDRASYEARERHVAERLLMHLEEMQHTISTDEEKSAAVVNAIGLYMRHLGVRTKSGDKKSGRNFFRKKVMGNRRSDEPAKTKKGLSSILDAARWNRGEPQVPDFRHLKAEVDAEKPGATDRKGGVGMPSRDRNIGAPGQDTPGVSLHPLSLDSPDREPGADAPLELGDSSPQGPMSLESLAPPESTDEGAETESPEPGDEGEPGRSGLELEPEEPPGWRELVPPDTLHSLPKSQVKRQEVISELLVTEAAHVRMLRVLHDLFFQPMAECLFFPLEELQNIFPSLDELIEVHSLFLDRLMKRRQESGYLIEEIGDVLLARFDGAEGSWFQKISSRFCSRQSFALEQLKAKQRKDPRFCAFVQEAESRPRCRRLQLKDMIPTEMQRLTKYPLLLQSIGQNTEEPTEREKVELAAECCREILHHVNQAVRDMEDLLRLKDYQRRLDLSHLRQSSDPMLSEFKNLDITKKKLVHEGPLTWRVTKDKAVEVHVLLLDDLLLLLQRQDERLLLKSHSRTLTPTPDGKTMLRPVLRLTSAMTREVATDHKAFYVLFTWDQEAQIYELVAQTVSERKNWCALITETAGSLKVPAPASRPKPRPSPSSTREPLLSSSENGNGGRETSPADARTERILSDLLPFCRPGPEGQLAATALRKVLSLKQLLFPAEEDNGAGPPRDGDGVPGGGPLSPARTQEIQENLLSLEETMKQLEELEEEFCRLRPLLSQLGGNSVPQPGCT [ARHGEF1] | 0.0626 | 49.2 °C | 49.1 °C | -0.134 | 1.08 | 1.58
5 | MAAPAPGLISVFSSSQELGAALAQLVAQRAACCLAGARARFALGLSGGSLVSMLARELPAAVAPAGPASLARWTLGFCDERLVPFDHAESTYGLYRTHLLSRLPIPESQVITINPELPVEEAAEDYAKKLRQAFQGDSIPVFDLLILGVGPDGHTCSLFPDHPLLQEREKIVAPISDSPKPPPQRVTLTLPVLNAARTVIFVATGEGKAAVLKRILEDQEENPLPAALVQPHTGKLCWFLDEAAARLLTVPFEKHSTL [PGLS] | 0.254 | 54.8 °C | 55.2 °C | 0.237 | -2.51 | -2.63
